Assay results published in paper PMC9765456.

Target: AP2-μ2 (plasmid-encoded: μ2-HA; μ2-myc in AP2 core and hemicomplex) (UniProt P84092)
Assay: anti-FLAG co-IP, Western blot
Conditions: reference: wild type; sites S31,S32

Substance: HPV-16 E7 (from UniProt P03129) S31A/S32A
- binding against the reference: weaker
